Test results as given in US20160311886A1, “Constructs Binding to Phosphatidylserine and Their Use in Disease Treatment and Imaging” (Board of Regents, The University of Texas System, priority 2005, published 2016).
Entries after “also recorded” stand apart in the source; their conditions may differ.

Legend:
[1] = system: orthotopic MDA-MB-435 breast tumors; assay: 3G4 localization to tumor blood vessels in vivo; parameters: species or system mouse
Text: Frozen sections of tumor and normal tissues were stained for the presence of mouse immunoglobulin. SCID mice that had been confirmed as having no detectable circulatory immunoglobulin were used to avoid background staining. In these studies, sections were counterstained with anti-mouse CD31 to detect vascular endothelium and the images were merged. […] Coincident staining appeared yellow, unless dominated by a particularly intense green or red fluorescence in that region. The antigen specificity of vessel localization was confirmed by the lack of endothelial staining in tumors from mice injected with the isotype-matched control antibodies, BBG3.

[2] = system: Tissue Factor (TF)-induced coagulation
human CMV AD169 = assay: CMV-GFP spread by fluorescent microscopy
dendritic cells = assay: DC uptake of apoptotic tumor cells; assay type: cell-based; settings: Fc(γ)R mediated internalization
Text: The inventors therefore envision using the anti-PS antibodies of the present invention to enhance both […] and cellular anti-tumor immunity, and boost the efficacy of ATC based DC tumor vaccines.

WiDr (colon carcinoma) = assay: WiDr colon carcinoma model; assay type: in vivo, mouse; settings: 100 μg 3×/week from day 5; preliminary study
Procedure: Treatment was started on day 5, when the tumors were small (10 mice per group). 100 μg of each antibody was injected 3×/week and tumor growth monitored.

bEnd.3 cells = assay: Growth of bEnd.3 cells in vitro; assay type: cell-based, mouse; settings: 20 μg to 40 μg total IgG per well; 48 and 96 hours
Procedure: 20% DMEM alone (control) or 20% DMEM containing the antibodies (20 μg to 40 μg total IgG per well) was added 4 hours after seeding. Each clone was tested on two separate plates in triplicates. Cells were detached 48 and 96 hours later, the cell count was determined in each well and the average cell number per treatment was calculated.

[3] = system: Pan02 mouse pancreatic adenocarcinoma; assay: 3G4 and gemcitabine, pancreatic cancer; assay type: in vivo; settings: 3G4 100 μg, gemcitabine 3.5 mg; day 22
Procedure: Pan02 mouse pancreatic adenocarcinoma cells were injected into the pancreas of immunocompetent C57BL/6 mice. Treatment was started on day 5 after tumor cell injection. […] Gemcitabine is a pyrimidine anti-metabolite. The animals were sacrificed at day 22 after tumor cell injection, and the tumor weight determined.

[4] = 3G4 reactivity with plastic-immobilized phospholipids and liposome competition; assay type: binding
Procedure: Phospholipids were dissolved in n-hexane to a concentration of 50 μg/ml. 100 μl of this solution was added to wells of 96-well microtiter plates. After evaporation of the solvent in air, the plates were blocked for 2 h with 10% FBS diluted in DPBS containing 2 mM Ca^2+ (binding buffer). […] Serial two-fold dilutions were prepared in the plates (100 μl per well). The plates were then incubated for 2 hr. at room temperature. […] Secondary reagents were detected by using chromogenic substrate OPD followed by reading plates at 490 nm using a microplate reader (Molecular Devices, Palo Alto, Calif.).
Specificity of phospholipid recognition was further confirmed by competition assays with various liposomes. […] The solutions were dried under nitrogen to form a thin layer in a round-bottomed glass flask. 10 ml of Tris buffer (0.1 M, pH 7.4) were then added and the flask was sonicated five times for 2 min. […] The mixture was added to phospholipid-coated plates.
Liposomes were prepared from solutions of 5 mg of a single phospholipid in chloroform. The solutions were dried under nitrogen to form a thin layer in a round-bottomed glass flask. Ten ml of Tris buffer (0.1 M, pH 7.4) were then added and the flask was sonicated five times for 2 min. […] The mixture was added to PS-coated plates (after standard blocking), incubated for 1 hour, washed and the secondary antibody added. After 1 hour, the plates were washed and developed for 5 minutes using OPD.

MDA-MB-435 breast tumors = assay: 3G4 and chimeric 3G4 tumor treatment; assay type: in vivo, mouse; settings: MD-MBA-435s; IP 800 μg day 15, 200 μg every two to three days, 400 μg day 35
Procedure: Tumors were also established using MD-MBA-435s cells and treated as described above. […] The treatment of large L540 tumors, MDA-MB-231 and MD-MBA-435s tumor cells for 60 days was also effective. The antibodies caused tumor vascular injury, thrombosis and necrosis and retarded tumor growth, with no evidence of toxicity.
MD-MBA-435s lucerifase cells were obtained from Dr. Angels Sierra Jimenez, Barcelona, Spain and were grown in 10% DMEM. Mice were injected with tumor cells as described as above, and at 2 weeks post injection, the tumors were measured and the volume recorded. […] Treatment was initiated by IP injection (800 μg) at day 15 and continued with injections of 200 μg every two to three days until the final injection of 400 μg at day 35. Tumor volumes and mouse body weights were measured on injection days. Mice were sacrificed and perfused with saline for 12 minutes. The organs and tumor were removed, snap-frozen in liquid nitrogen and the tumor sectioned for immunohistochemistical analysis.
Groups of 8-10 female SCID mice were injected subcutaneously with 2×10^7 L540 cells or orthotopically with 1×10^7 MDA-MB-435 or MDA-MB-231 cells. BALB/c mice were injected subcutaneously with 1×10^6 Meth A cells. […] Animals were monitored three times a week for tumor size and body weight. […]

tumors = assay: Tumor treatment with 3G4 and its F(ab′)2 fragment; assay type: in vivo, mouse; settings: treated on day 9
mCMV RVG102 = assay: Survival of mCMV-infected mice; assay type: in vivo, mouse; settings: past 90 days post infection; untreated 25%
[5] = 3G4 toxicity studies in mice; assay type: in vivo, mouse
Text: The following parameters were specifically examined.
Mice retain normal physical signs, bone marrow cellularity, white blood cell counts, histology and coagulation functions.

B1: 3G4: Mouse IgG3 kappa monoclonal antibody to PS and anionic phospholipids; binding mediated by β2-glycoprotein I (antibody, listed as Mus musculus)
VH: MGWTWIFILILSVTTGVHSEVQLQQSGPELEKPGASVKLSCKASGYSFTGYNMNWVKQSHGKSLEWIGHIDPYYGDTSYNQKFRGKATLTVDKSSSTAYMQLKSLTSEDSAVYYCVKGGYYGHWYFDVWGAGTTVTVSSATTTAPSVYPLVP
VL: MDMRAPAQILGFLLLLFPGTRCDIQMTQSPSSLSASLGERVSLTCRASQDIGSSLNWLQQGPDGTIKRLIYATSSLDSGVPKRFSGSRSGSDYSLTISSLESEDFVDYYCLQYVSSPPTFGAGTKLELKRADAAPTVFIFGRIP
- tumor blood vessels with localized antibody ([1]; after i.p. or i.v. injection): 40±10%
- time to maximal localization to tumor vessels ([1]; i.p. injection): ≤ 6 h
- time to maximal staining of tumor vessels ([1]; i.v. injection): ≤ 1 h
- inhibition of TF-induced coagulation [2]: weak inhibition
- cell-to-cell spread (human CMV AD169; 100 μg/ml and 50 μg/ml): complete inhibition of cell-to-cell spread
- entry of the virus into the cells (human CMV AD169; day 3, 50 and 100 μg/ml): does not appear to significantly inhibit the entry of the virus
- viral spread in monolayer (human CMV AD169; day 9, 100 μg/ml and 50 μg/ml, control wells approximately 80% infected): restricted to the original singly-infected cell
- enhancement of DC uptake of apoptotic tumor cells (dendritic cells): 300%
- tumor growth (WiDr (colon carcinoma)): slowed tumor growth to essentially the same degree
- inhibition of growth of bEnd.3 cells (bEnd.3 cells): particularly effective
- anti-tumor effect (tumor weight) [3]: significant anti-tumor effect
- binding to neutral phospholipids (PE, PC and SM) in ELISA [4]: does not bind
- binding to anionic phospholipid-coated plates ([4]; 1 mg/ml human β2-glycoprotein I, no serum): Full binding was restored
- effect of EDTA on binding ([4]; 5 mM EDTA): unaffected
- reduction of binding to anionic phospholipid-coated plates ([4]; absence of serum): 90%
- competition by phospholipid liposomes ([4]; liposomes of single phospholipids): blocked by liposomes prepared from PS, PA, PI and CL; also recorded: blocked by liposomes prepared from anionic phospholipids
- tumor growth vs control (MDA-MB-435 breast tumors): effectively retarded tumor growth
- tumor growth (tumors): tumor growth was significantly slowed
- survival (mCMV RVG102): 100%
- blood coagulation parameters (PT, APTT, D-dimer) ([5]; 100 μg IP three times a week): normal
- toxicity ([5]; 1 mg purified antibody intraperitoneally): no toxicity was observed
- physical signs of toxicity ([5]; BALB/c mice, 100 μg IP three times a week for 2 to 4 weeks): No physical signs of toxicity have been observed
- physical signs of toxicity ([5]; single i.p. 2 mg, or 0.5 mg daily for 14 days): showed no physical signs of toxicity
- Bone marrow cellularity and composition ([5]; six injections, 100 μg): normal
